Laboratory results: PMC8510550

Molecular target: VirB4-like TraB ATPase of the pKM101-encoded type IV secretion system (plasmid pKM101 (carried in E. coli))
Experiment: cryo-EM structure; in situ cryo-electron tomography with subtomogram averaging of T4SS(pKM101) machines in E. coli UU2834 minicells; 6-fold symmetry seen in class averages and then imposed for the IMC; wild type compared with ΔtraB mutant machines

## VirB4-like TraB ATPase of the pKM101-encoded type IV secretion system (enzyme)
  stoichiometry N: 12
